Consider one molecule from article PMC9280406, “The Necrotroph Botrytis cinerea BcSpd1 Plays a Key Role in Modulating Both Fungal Pathogenic Factors and Plant Disease Development”.

For the data set, the target named is BcSpd1 (Botrytis cinerea, UniProt A0A384JL35 1-465). Description: EMSA; excess unlabeled probe blocked the shift; LightShift Chemiluminescent EMSA kit procedure (Thermo Scientific); buffer, salt, pH and temperature not given. Conditions: protein: recombinant; tags: His (pET28a); chain copies: 2; blunt. Background: Mobility shift assays separate free from complexed probe on a gel.

B1: BcQdo promoter fragment 3 (E-BcQdo-Pr3) (dsDNA)
DNA 1: TACCGAACGCCCACAAGCCTTGAATATAGATGTACCGGTACTGCTGCCGA
DNA 2: TCGGCAGCAGTACCGGTACATCTATATTCAAGGCTTGTGGGCGTTCGGTA
Turning to B1, the binding result is on record as “binds”.
